Assay results: US20180273621A1

Key:
[1] = molecular target: Human FcγRI, recombinantly expressed extracellular domain (human) (UniProt P12314); assay: BIAcore 3000, IgG immobilized, FcγR extracellular domain injected, equilibrium fit to a 1:1 binding isotherm; Fc variant 16C4-235F
[2] = molecular target: Mouse FcγRIII, recombinantly expressed extracellular domain (mouse) (UniProt P08508); assay: BIAcore 3000, IgG immobilized, FcγR extracellular domain injected, equilibrium fit to a 1:1 binding isotherm
Mouse FcγRIII, recombinantly expressed extracellular domain (mouse), sequence (P08508 31-215): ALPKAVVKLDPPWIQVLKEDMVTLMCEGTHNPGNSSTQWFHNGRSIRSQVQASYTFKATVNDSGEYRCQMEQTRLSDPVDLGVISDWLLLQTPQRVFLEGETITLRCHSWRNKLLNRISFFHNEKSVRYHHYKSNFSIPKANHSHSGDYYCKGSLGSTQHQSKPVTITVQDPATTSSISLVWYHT

[3] = molecular target: Human FcγRIIB, recombinantly expressed extracellular domain (human) (UniProt P31994); assay: as above
Human FcγRIIB, recombinantly expressed extracellular domain (human), sequence (P31994 43-217): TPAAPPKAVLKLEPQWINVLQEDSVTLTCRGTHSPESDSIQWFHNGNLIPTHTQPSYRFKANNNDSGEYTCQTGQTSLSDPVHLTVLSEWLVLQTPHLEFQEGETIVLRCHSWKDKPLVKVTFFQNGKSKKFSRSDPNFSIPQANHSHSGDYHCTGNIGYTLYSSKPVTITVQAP

[4] = molecular target: Mouse FcγRIIB, recombinantly expressed extracellular domain (mouse) (UniProt P08101); assay: as above
Mouse FcγRIIB, recombinantly expressed extracellular domain (mouse), sequence (P08101 30-210): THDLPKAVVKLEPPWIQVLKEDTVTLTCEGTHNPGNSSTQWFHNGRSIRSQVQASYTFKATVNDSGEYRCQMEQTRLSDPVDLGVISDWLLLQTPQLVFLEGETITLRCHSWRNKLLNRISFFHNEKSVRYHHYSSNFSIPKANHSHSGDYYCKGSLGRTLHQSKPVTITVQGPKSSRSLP

[5] = molecular target: Human FcγRIIA, recombinantly expressed extracellular domain (human) (UniProt P12318); assay: as above
Human FcγRIIA, recombinantly expressed extracellular domain (human), sequence (P12318 34-217): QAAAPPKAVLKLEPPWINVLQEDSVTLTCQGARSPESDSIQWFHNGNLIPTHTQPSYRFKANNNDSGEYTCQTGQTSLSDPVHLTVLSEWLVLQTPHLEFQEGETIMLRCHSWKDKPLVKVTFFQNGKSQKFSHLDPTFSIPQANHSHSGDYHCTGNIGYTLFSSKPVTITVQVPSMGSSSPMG

[6] = molecular target: Mouse FcγRIV, recombinantly expressed extracellular domain (mouse); assay: as above
Mouse FcγRIV, recombinantly expressed extracellular domain (mouse), sequence (A0A0B4 entry or part of it limits assumed): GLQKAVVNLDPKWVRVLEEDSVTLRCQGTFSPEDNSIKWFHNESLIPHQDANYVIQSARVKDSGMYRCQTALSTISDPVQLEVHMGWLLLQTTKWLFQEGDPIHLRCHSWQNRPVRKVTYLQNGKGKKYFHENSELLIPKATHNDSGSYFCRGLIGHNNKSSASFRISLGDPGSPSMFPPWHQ

[7] = molecular target: Human FcγRIIIA (V158), recombinantly expressed extracellular domain (human) (UniProt P08637); assay: as above
Human FcγRIIIA (V158), recombinantly expressed extracellular domain (human), sequence (P08637 17-208 F176V): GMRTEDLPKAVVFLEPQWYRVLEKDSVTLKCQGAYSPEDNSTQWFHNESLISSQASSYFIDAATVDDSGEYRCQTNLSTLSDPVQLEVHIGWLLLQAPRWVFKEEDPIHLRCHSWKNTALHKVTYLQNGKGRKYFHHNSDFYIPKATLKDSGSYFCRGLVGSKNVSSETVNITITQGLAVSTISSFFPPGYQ

[8] = molecular target: Human FcγRI, recombinantly expressed extracellular domain (human) (UniProt P12314); assay: BIAcore 3000, IgG immobilized, FcγR extracellular domain injected, equilibrium fit to a 1:1 binding isotherm; Fc variant 16C4-235Y
[9] = molecular target: Human FcγRI, recombinantly expressed extracellular domain (human) (UniProt P12314); assay: BIAcore 3000, IgG immobilized, FcγR extracellular domain injected, equilibrium fit to a 1:1 binding isotherm; 16C4, parent Fc (no Fc substitution)

Human FcγRI, recombinantly expressed extracellular domain (human), sequence (P12314 16-292): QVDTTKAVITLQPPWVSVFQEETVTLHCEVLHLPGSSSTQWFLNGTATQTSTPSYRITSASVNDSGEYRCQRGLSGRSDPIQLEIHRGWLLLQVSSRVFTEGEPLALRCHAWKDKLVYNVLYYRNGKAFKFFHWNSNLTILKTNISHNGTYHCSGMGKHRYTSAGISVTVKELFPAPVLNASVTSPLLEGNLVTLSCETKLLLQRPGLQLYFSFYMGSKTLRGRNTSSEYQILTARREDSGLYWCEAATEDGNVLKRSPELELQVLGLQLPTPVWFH

Row | Substance | Kd [1] [µM] | Kd [2] [µM] | Kd [3] [µM] | Kd [4] [µM] | Kd [5] [µM] | Kd [6] [µM] | Kd [7] [µM] | Kd [8] [µM] | Kd [9] [µM]
1 | 16C4 Fc variant antibody comprising the L234F/L235F/P331S amino acid substitutions | 1.53 | 10.9 | 6.81 | 2.82 | 6.36 | 11.1 | 4.61 |  | 
2 | 16C4 Fc variant antibody comprising the L234F/L235Y/P331S amino acid substitutions |  | 9.24 | 17.1 | 2.67 | 6.98 |  | 5.14 | 8.65 | 
3 | 16C4 affinity matured anti-CD19 IgG antibody |  | 6.36 | 14.5 | 1.47 |  | 0.329 | 0.574 |  | 0.019
